Experimental data from patent US20200325475, “DNA APTAMER […] BINDING TO CFP10, AND USE […]” (MD APTUS INC., published 2020).

What was measured:
[1] = molecular target: CFP10 (culture filtrate protein 10 kDa) (Mycobacterium tuberculosis H37Rv, UniProt P9WNK5 P9WNK5:1-100); test: Cy3-aptamer binding to CFP10 on magnetic beads, fluorescence; 20 mM Tris, 50 mM NaCl, 5 mM KCl, 5 mM MgCl2, pH 8.0; conditions: tags: His6 tag, expressed from pET32a in E. coli BL21(DE3); label: Cy3 (fluorescence Kd assay)
CFP10 (culture filtrate protein 10 kDa), sequence (P9WNK5 whole entry, one chain of several): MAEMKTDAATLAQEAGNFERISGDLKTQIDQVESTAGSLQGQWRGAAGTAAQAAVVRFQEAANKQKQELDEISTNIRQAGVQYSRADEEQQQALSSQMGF
Method: 400 pmole of CFP10 was mixed with 10 μL of magnetic beads, and then incubated in 100 μL of a binding buffer (20 mM Tris, 50 mM NaCl, 5 mM KCl, 5 mM MgCl₂, pH 8.0) for 1 hour. To separate unbound CFP10, washing was performed twice with a binding buffer. Subsequently, the resulting mixture was incubated together with various concentrations of a Cy3-labeled aptamer, and an unbound aptamer was removed by washing. The amount of Cy3-labeled ssDNA aptamer bound to the magnetic beads with CFP10 immobilized thereon was measured by fluorescence measurement (1420 Victor Multilabel counter, PerkinElmer, USA) by separating only Cy3-labeled ssDNA bound to CFP10. As a result, as shown in FIG. 3 and Table 2 below, the Kd value of the DNA aptamer having a CG6 base sequence was measured.

ESAT6 = ESAT6 (UniProt P9WNK7 P9WNK7:1-95); test: impedance biosensor, 10 pM protein in PBS
ESAT6, sequence (P9WNK7 whole entry, one chain of several): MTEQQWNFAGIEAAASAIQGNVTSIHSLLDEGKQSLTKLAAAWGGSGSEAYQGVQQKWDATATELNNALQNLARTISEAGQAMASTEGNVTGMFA
Source text: At this time, each protein was mixed at a concentration of 10 pM with PBS and used for detection.

B1: CG6 (ssDNA)
DNA: CACCTAATACGACTCACTATAGCGGATCCGACCTAGGTTCAGAAGGCTTTCTATTTTCCCGGTGCCTCGCACTGGCTCGAACAAGCTTGC
Kd [1]: 92.8 nM | binding result (ESAT6): no binding
